Laboratory results: patent US20170260241A1 (KEMYTH BIOTECH, published 2017)

B1: N35PLY4 (N-terminal 35 amino acid fragment of C70PLY4, 402-436 amino acid residues) (peptide)
peptide: QDLTAHFTTSIPLKGNVRNLSVKIRECTGLAWEWW
B2: C70PLY4 (C-terminal 70 amino acid fragment of pneumolysin, 402-471 amino acid residues) (peptide)
peptide: QDLTAHFTTSIPLKGNVRNLSVKIRECTGLAWEWWRTVYEKTDLPLVRKRTISIWGTTLYPQVEDKVEND

Legend:
recombinant TLR4 protein [1] = target: T1, recombinant TLR4 protein; experiment: competition ELISA: peptide titrated from 50 µM to 3.05 nM against MD2 (50 nM) on plate-coated TLR4; competitor MD2
T1 construct: also called Toll-like receptor 4

recombinant TLR4 protein [2] = target: T1, recombinant TLR4 protein; experiment: competition ELISA: TLR4 coated (2 µg/mL), MD2 (50 nM) mixed with titrated peptide, residual bound MD2 detected with anti-MD2 and anti-mouse IgG-HRP, OD450; competed ligand: MD2

Row | Binder | Ki (recombinant TLR4 protein [1]) [nM] | IC50 (read off the curve) (recombinant TLR4 protein [2]) [nM]
1 | B1 | 11200 | –
2 | B2 | 74.8 | ~300
